{"source": "patent US20120207760A1", "about": "(THERACLONE SCIENCES, published 2012)"}
{"target": "Hemagglutinin of influenza A/Solomon Islands/3/06 (H1N1), on inactivated whole virions (Influenza A virus A/Solomon …)", "test": "ELISA, B cell culture supernatant on inactivated whole virions", "units": {"OD450": "OD450"}}
{"binder": "TCN-552 (5249_I23) (antibody, V domains shown) VH: QVQVVQSGAEVKKPGSSVRVSCQASGGTFMNYAIIWVRRAPGQGLEWMGGIIPVFPTPNYAQMFQGRVTISTDESRSTSFLELTNLRYEDTAVYYCARRIYHGGNSGFDFWGQGTLVTVSS VL: EIVLTQSPATLSLSPGERATLSCRASQSVGNYLAWYQQKPGQAPRLLIYDSSNRAPGIPARFSGSGSGTDFTLTISSLAPEDFAVYYCQQRSKWPPMYSFGHGTKLEIK", "OD450": 3.57}
{"binder": "TCN-553 (5261_C18) (antibody, V domains shown) VH: QVQVVQSGTEVKKPGSSVKVSCQTSGGRFMSYAITWVRQAPGQGLEWMGGIVPVFGTANYAQKFQGRVTITTDDSTRTAYMELSSLRSEDTAVYYCGFRYGSGYGFDSWGQGTLVTVSS VL: EIVLTQSPGTLSLSPGERATLSCRASQSVSSSYLAWYQKKPGQAPRLLIYGASTRATGIPDRFTGSGSGTDFTLSISRLEPEDFAVYYCQHFGTSVFTFGGGTKVEIK", "OD450": 3.6}
{"binder": "TCN-556 (5089_K12) (antibody, V domains shown) VH: QVQLVQSGAEVKKPGASVKVSCKASGYTFIGYDMHWVRQAPGQGLEWMGWINAKRGGTNYAQKFQGRVTMTRDTSISTAYMELNSLRSDDTAVYYCARGVGSRTTIFGVLNPEFDYWGQGTLVTVSS VL: QSALTQPPSASGSPGQSVTISCTGSSSDVGGYDYVSWYQQHPGKAPKLLIYEVTKRPSGVPDRFSGSKSGNTASLTVSGLQAEDEADYYCSSYAGNYNHVFGPGTKVTVL", "OD450": 2.7}
{"binder": "TCN-560 (5084_P10) (antibody, V domains shown) VH: EVQLVESGGGLVQPGGSLRLSCAASGFIFRNYWMSWVRQAPGKGLEWVANIKQDGREKYYVDSLRGRVNISRDNAENSLYLHMNSLRVEDTAVYFCARARMVVVTGDGFDVWGHGTMVTVSS VL: DIQMTQSPSSLSASVGDRVTITCRASQNIKRYFNWYQQKPGKAPKLLIYAASNLENGVPSRFSGSGSGTDFTLTISSLQPEDFATYYCQQSFSKSWTFGQGTNVDIK", "OD450": 3.63}
{"binder": "TCN-557 (5081_A04) (antibody, V domains shown) VH: QVQLVQSGAEVKKPGASVKVSCKASGHTFTGYYIHWVRQAPGQGLEWMGWINPDSGATSSAQNFQGRVTMTGDTSSSTAYMELSRLSFDDTAVYYCARVLFTSPFDFWGEGTLVTVSS VL: QAVVTQEPSLAVSPGGTVTLTCGSSTGAVTRGHYPYWFQQKPGQAPRALIYDSAGNRHSWTPARFSGSLLGGKAALTLSGAQPEDEAEYYCLLSYSGVWVFGGGTKLTVL", "OD450": 2.32}
{"binder": "TCN-551 (5243_D01) (antibody, V domains shown) VH: EVQLVQSGSEVKKPGESLKISCKGSGYSFSNYWIGWVRHMPGKGLEWMGIIYPGDSDTRYSPSFQGQVTMSADKSSSTVYLQWSSLKASDTAIYYCARRGGHSFGYGSGGDTHSEFDSWGQGTLVTVSS VL: QSVLTQSPSVSAAPGQKVTISCSGSDSNIGDYFVCWYQHLPGKPPQLLIYENNKRPSGIPDRFSGSKSGTSATLGITGIQTGDEADYYCATWDGSLSAWVFGGGTKLTVL", "OD450": 3.35}
{"binder": "TCN-555 (5246_L16) (antibody, V domains shown) VH: QVQLVQSGAEVKRPGSSVKVSCTASGGIFRKNAISWVRQAPGQGLEWMGGIIAVFNTANYAQKFQNRVKITADESGNTAYMELSSLTSDDTAVYYCASHPKYFYGSGSYPDFWGQGTLVTVSS VL: QSALTQPRSVSGSPGQSITISCTGGSSDIGASNSVSWYQQHPGKAPKLVIFDVTERPSGVPHRFSGSKSGNTASLTVSGLQPDDEADYFCCAYGGKYLVVFGGGTKVTVL", "OD450": 2.89}
